The results in this text go back to patent US20160368961A1 (GLYTECH, published 2016).

The target in assay [1] is somatostatin receptors SSTR1-SSTR5 (receptor not singled out in the sentence). Description: competitive radioligand binding.
In assay [2] the target is somatostatin receptor SSTR3 (Human, UniProt P32745 1-418). Briefly: competitive radioligand binding.
Assay [3] has as its target T1, somatostatin receptor SSTR2 (Human, UniProt P30874 1-369). Briefly: cell-based or functional assay.
Assay [4] has as its target somatostatin receptor SSTR4 (Human, UniProt P31391 1-388). Briefly: cell-based or functional assay.
Assay [5] addresses somatostatin receptor SSTR1 (human) (UniProt P30872). Description: competitive radioligand binding.
The target of assay [6] is somatostatin receptor SSTR2 (human) (UniProt P30874). Description: competitive radioligand binding.
Assay [7] deals with somatostatin receptor SSTR1 (Human, UniProt P30872 1-391). Description: competitive radioligand binding.
In assay [8] the target is T1, somatostatin receptor SSTR2. Description: competitive radioligand binding.
Assay [9] addresses Somatostatin receptor SSTR3 (human recombinant, CHO-K1 cells) (human, UniProt P32745 1-418). Description: competitive radioligand binding.
Assay [10] addresses Somatostatin receptor SSTR2 (UniProt P30874 1-369, limits assumed). Description: cell-based or functional assay.
Assay [11] has as its target Somatostatin receptor SSTR5 (UniProt P35346 1-364, limits assumed). Briefly: cell-based or functional assay.
Assay [12] concerns the target Somatostatin receptor SSTR1 (human recombinant, CHO-K1 cells) (human, UniProt P30872 1-391). Briefly: competitive radioligand binding.
Assay [13] addresses Somatostatin receptor SSTR4 (UniProt P31391 1-388, limits assumed). Description: cell-based or functional assay.

Positions of bridges follow the written chain, without caps; N, C: chain ends. Primed or numbered codes have the meaning given here. No end group written: not given here. *: point of attachment. dimannose = dimannose sugar chain attached to the residue; GlcNAc(3) = GlcNAc attached to the Cys side chain; Biotin = O=C1N[C@H]2[C@H](CS[C@H]2CCCCC(=O)*)N1; disialo = disialo sugar chain; GlcNAc = N-acetylglucosamine

T1 sequence (P30874 whole entry): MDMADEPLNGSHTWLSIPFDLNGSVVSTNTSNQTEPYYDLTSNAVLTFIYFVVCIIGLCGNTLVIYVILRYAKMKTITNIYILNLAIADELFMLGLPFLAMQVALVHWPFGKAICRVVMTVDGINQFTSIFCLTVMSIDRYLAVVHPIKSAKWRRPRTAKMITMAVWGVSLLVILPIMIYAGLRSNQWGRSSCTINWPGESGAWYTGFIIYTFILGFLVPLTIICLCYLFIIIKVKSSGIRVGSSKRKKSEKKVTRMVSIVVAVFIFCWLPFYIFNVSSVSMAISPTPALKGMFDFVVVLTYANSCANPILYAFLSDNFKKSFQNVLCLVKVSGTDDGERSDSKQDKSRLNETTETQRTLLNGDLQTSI
Somatostatin receptor SSTR2, sequence (P30874 whole entry): as above
somatostatin receptor SSTR3, sequence (P32745 whole entry): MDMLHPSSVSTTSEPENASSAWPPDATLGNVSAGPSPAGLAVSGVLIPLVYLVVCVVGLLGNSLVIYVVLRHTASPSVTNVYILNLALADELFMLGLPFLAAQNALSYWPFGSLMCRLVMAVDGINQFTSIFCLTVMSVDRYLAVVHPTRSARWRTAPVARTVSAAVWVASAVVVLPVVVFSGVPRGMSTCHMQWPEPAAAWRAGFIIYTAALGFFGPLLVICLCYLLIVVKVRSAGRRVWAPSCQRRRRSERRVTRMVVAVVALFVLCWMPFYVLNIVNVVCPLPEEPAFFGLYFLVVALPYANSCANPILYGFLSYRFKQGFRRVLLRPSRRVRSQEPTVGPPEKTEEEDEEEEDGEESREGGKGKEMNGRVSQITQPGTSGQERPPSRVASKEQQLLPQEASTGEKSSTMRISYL
somatostatin receptor SSTR2 (human), sequence (P30874 whole entry): as the sequence (P30874 whole entry) above
Somatostatin receptor SSTR3 (human recombinant, CHO-K1 cells), sequence (P32745 whole entry): as the sequence (P32745 whole entry) above
somatostatin receptor SSTR1 (human), sequence (P30872 whole entry): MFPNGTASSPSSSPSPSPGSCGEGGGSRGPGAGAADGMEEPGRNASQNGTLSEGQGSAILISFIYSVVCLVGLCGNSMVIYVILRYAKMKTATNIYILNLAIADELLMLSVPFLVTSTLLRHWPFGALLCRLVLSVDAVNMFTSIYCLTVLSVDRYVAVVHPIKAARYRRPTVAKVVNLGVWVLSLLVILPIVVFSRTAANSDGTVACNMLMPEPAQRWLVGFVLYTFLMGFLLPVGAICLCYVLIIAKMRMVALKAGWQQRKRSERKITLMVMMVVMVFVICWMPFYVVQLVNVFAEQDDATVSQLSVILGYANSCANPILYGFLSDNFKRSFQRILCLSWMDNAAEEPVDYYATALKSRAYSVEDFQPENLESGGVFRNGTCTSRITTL
Somatostatin receptor SSTR1 (human recombinant, CHO-K1 cells), sequence (P30872 whole entry): as above
somatostatin receptor SSTR1, sequence (P30872 whole entry): as above
Somatostatin receptor SSTR5, sequence (P35346 whole entry): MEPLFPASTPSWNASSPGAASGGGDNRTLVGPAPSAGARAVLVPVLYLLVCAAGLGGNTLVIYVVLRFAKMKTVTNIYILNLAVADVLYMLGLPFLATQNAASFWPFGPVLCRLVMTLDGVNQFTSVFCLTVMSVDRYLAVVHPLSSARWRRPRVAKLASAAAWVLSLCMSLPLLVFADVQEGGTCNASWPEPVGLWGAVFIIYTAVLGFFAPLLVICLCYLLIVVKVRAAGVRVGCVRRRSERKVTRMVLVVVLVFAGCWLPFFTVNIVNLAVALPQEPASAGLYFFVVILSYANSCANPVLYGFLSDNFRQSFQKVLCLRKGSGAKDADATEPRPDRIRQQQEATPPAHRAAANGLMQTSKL
Somatostatin receptor SSTR4, sequence (P31391 whole entry): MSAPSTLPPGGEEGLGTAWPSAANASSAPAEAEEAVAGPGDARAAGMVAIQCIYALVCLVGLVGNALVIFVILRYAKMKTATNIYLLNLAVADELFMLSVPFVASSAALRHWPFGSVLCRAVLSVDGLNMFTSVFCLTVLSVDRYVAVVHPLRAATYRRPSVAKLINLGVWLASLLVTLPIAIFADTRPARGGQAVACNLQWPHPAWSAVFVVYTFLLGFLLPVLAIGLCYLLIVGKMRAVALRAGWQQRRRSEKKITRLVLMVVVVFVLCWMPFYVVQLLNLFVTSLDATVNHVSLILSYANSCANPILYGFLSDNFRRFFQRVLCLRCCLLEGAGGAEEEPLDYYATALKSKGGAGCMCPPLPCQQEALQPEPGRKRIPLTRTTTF
somatostatin receptor SSTR4, sequence (P31391 whole entry): as above

On to “S1C(disialo).N5C(disialo)-SRIF28 (peptide)”, for which the ratio of Ki to the Ki of unglycosylated SRIF14 in assay [1] was 15.7 ratio (:1).

As a reminder, the Ki is the dissociation constant of the complex between target and ligand, obtained from inhibition or displacement. Low readings indicate a stronger hold on the target, high ones a looser hold on the target. Biotin-C(disialo sugar chain)ANSNPAMAPRERKAGCKNFFWKTFTSC (disulfide 17-28) [Biotin-S1C(disialo)-SRIF28] registered a Ki in assay [2] of 1 nM.

Turning to C(disialo sugar chain)ANSNPAMAPRERKAGCKNFFWKTFTSC (disulfide 17-28) [S1C(disialo)-SRIF28], the “IC50 of cAMP production suppressing action (agonist activity)” value (from here on “IC50 … (agonist activity)”) in [3] was determined as 0.075 nM; in assay [4], 0.065 nM.

On to SANSNPAMAPRERKAGCKNFFWKTC(disialo)TSC (disulfide 17-28) [F25C(disialo)-SRIF28], for which the Ki as fold of that of SRIF14 in assay [5] and in assay [6] was 310 to 5300 fold each time. The Ki is greater than 828 nM in [7], greater than 531 nM in [8] and greater than 342 nM in assay [2].

Turning to N(disialo sugar chain)ANSNPAMAPRERKAGCKC(dimannose)FFWKTFTSC (disulfide 17-28) [S1N(disialo).N19C(diMan)-SRIF28], the Ki in [8] was 3 nM.

B1: 29C(disialo)-SRIF28 (peptide)
peptide: SANSNPAMAPRERKAGCKNFFWKTFTSCC
modifications: disialo sugar chain attached Cys added after Cys28 (position 29); disulfide bond Cys17-Cys28
A word on the IC50: it is the midpoint of a concentration-inhibition curve. For B1, the IC50 in assay [9] amounted to 7 nM.

As for C(disialo sugar chain)ANSNPAMAPRERKAGCKC(GlcNAc)FFWKTFTSC (disulfide 17-28) [S1C(disialo).N19C(GlcNAc)-SRIF28], the “IC50 … (agonist activity)” value in [10] was 0.08 nM.

Turning to C(disialo sugar chain)ANSC(disialo sugar chain)PAMAPRERKAGCKNFFWKTFTSC (disulfide 17-28) [S1C(disialo).N5C(disialo)-SRIF28], the “IC50 … (agonist activity)” value in assay [11] came to 0.09 nM.

The molecule C(disialo sugar chain)ANSC(disialo sugar chain)PAMC(disialo sugar chain)PRERKAGCKNFFWKTFTSC (disulfide 17-28) [S1C(disialo).N5C(disialo).A9C(disialo)-SRIF28] came in with a fold difference in Ki against the glycosylated forms of Examples 1 and 21 in [1] of 10 fold.

As for C(GlcNAc(3))ANSNPAMAPRERKAGCKNFFWKTFTSC (disulfide 17-28) [S1C(GlcNAc)-SRIF28], the “IC50 … (agonist activity)” value in [10] came out at 0.04 nM.

Consider SANSC(disialo)PAMC(disialo)PRERKAGCKNFFWKTFTSC (disulfide 17-28) [N5C(disialo).A9C(disialo)-SRIF28], for which the IC50 in assay [12] was 30 nM.

Turning to C(disialo sugar chain)ANSNPAMAPRERKAGCKNFFWKTFTSC-NH2 (disulfide 17-28) [S1C(disialo)-SRIF28-amide], in assay [8], the affinity corresponds to a Ki of 0.7 nM.

Take C(diGlcNAc sugar chain)ANSNPAMAPRERKAGCKNFFWKTFTSC (disulfide 17-28) [S1C(diGlcNAc)-SRIF28]: the “IC50 … (agonist activity)” value in [13] was 0.05 nM.
